Experimental data: article PMC8313675, “Molecular insights into the human ABCB6 transporter” (Cell Discovery, 2021)

B1: human ABCB6 (hABCB6), wild type, C-terminal Strep-tag (natural protein, UniProt Q9NP58 1-842, looked up)
chain: MVTVGNYCEAEGPVGPAWMQDGLSPCFFFTLVPSTRMALGTLALVLALPCRRRERPAGADSLSWGAGPRISPYVLQLLLATLQAALPLAGLAGRVGTARGAPLPSYLLLASVLESLAGACGLWLLVVERSQARQRLAMGIWIKFRHSPGLLLLWTVAFAAENLALVSWNSPQWWWARADLGQQVQFSLWVLRYVVSGGLFVLGLWAPGLRPQSYTLQVHEEDQDVERSQVRSAAQQSTWRDFGRKLRLLSGYLWPRGSPALQLVVLICLGLMGLERALNVLVPIFYRNIVNLLTEKAPWNSLAWTVTSYVFLKFLQGGGTGSTGFVSNLRTFLWIRVQQFTSRRVELLIFSHLHELSLRWHLGRRTGEVLRIADRGTSSVTGLLSYLVFNVIPTLADIIIGIIYFSMFFNAWFGLIVFLCMSLYLTLTIVVTEWRTKFRRAMNTQENATRARAVDSLLNFETVKYYNAESYEVERYREAIIKYQGLEWKSSASLVLLNQTQNLVIGLGLLAGSLLCAYFVTEQKLQVGDYVLFGTYIIQLYMPLNWFGTYYRMIQTNFIDMENMFDLLKEETEVKDLPGAGPLRFQKGRIEFENVHFSYADGRETLQDVSFTVMPGQTLALVGPSGAGKSTILRLLFRFYDISSGCIRIDGQDISQVTQASLRSHIGVVPQDTVLFNDTIADNIRYGRVTAGNDEVEAAAQAAGIHDAIMAFPEGYRTQVGERGLKLSGGEKQRVAIARTILKAPGIILLDEATSALDTSNERAIQASLAKVCANRTTIVVAHRLSTVVNADQILVIKDGCIVERGRHEALLSRGGVYADMWQLQQGQEETSEDTKPQTMER
notes: ABCB6, Homo sapiens, 842-amino acid protein; theoretical MW 94 kDa; TMD0 (residues 1-244) is in the protein but obscure in the map; PDB and EMDB ids are assigned by the order of the data availability sentence; also called WT hABCB6; hABCB6-WT; not shown: Strep-tag, C-terminal, kept
B2: human ABCB6 E752Q mutant (hABCB6[EQ]), C-terminal Strep-tag (natural protein, UniProt Q9NP58 1-842, looked up)
chain: MVTVGNYCEAEGPVGPAWMQDGLSPCFFFTLVPSTRMALGTLALVLALPCRRRERPAGADSLSWGAGPRISPYVLQLLLATLQAALPLAGLAGRVGTARGAPLPSYLLLASVLESLAGACGLWLLVVERSQARQRLAMGIWIKFRHSPGLLLLWTVAFAAENLALVSWNSPQWWWARADLGQQVQFSLWVLRYVVSGGLFVLGLWAPGLRPQSYTLQVHEEDQDVERSQVRSAAQQSTWRDFGRKLRLLSGYLWPRGSPALQLVVLICLGLMGLERALNVLVPIFYRNIVNLLTEKAPWNSLAWTVTSYVFLKFLQGGGTGSTGFVSNLRTFLWIRVQQFTSRRVELLIFSHLHELSLRWHLGRRTGEVLRIADRGTSSVTGLLSYLVFNVIPTLADIIIGIIYFSMFFNAWFGLIVFLCMSLYLTLTIVVTEWRTKFRRAMNTQENATRARAVDSLLNFETVKYYNAESYEVERYREAIIKYQGLEWKSSASLVLLNQTQNLVIGLGLLAGSLLCAYFVTEQKLQVGDYVLFGTYIIQLYMPLNWFGTYYRMIQTNFIDMENMFDLLKEETEVKDLPGAGPLRFQKGRIEFENVHFSYADGRETLQDVSFTVMPGQTLALVGPSGAGKSTILRLLFRFYDISSGCIRIDGQDISQVTQASLRSHIGVVPQDTVLFNDTIADNIRYGRVTAGNDEVEAAAQAAGIHDAIMAFPEGYRTQVGERGLKLSGGEKQRVAIARTILKAPGIILLDQATSALDTSNERAIQASLAKVCANRTTIVVAHRLSTVVNADQILVIKDGCIVERGRHEALLSRGGVYADMWQLQQGQEETSEDTKPQTMER
notes: ABCB6, Homo sapiens, 842-amino acid protein, with the Walker B mutation E752Q; Same construct as m1 with E752Q; Incubated with 5 mM ATP-Mg2+ (and 20 uM PPIX) before grid preparation; PDB and EMDB ids are assigned by the order of the data availability sentence; also called hABCB6 E752Q; not shown: Strep-tag, C-terminal, kept

What was measured:
[1] = target: the molecule itself; assay: cryo-EM structure; apo-state WT hABCB6 in POPC:POPE (3:1) MSP2N2 nanodiscs, inward-facing, C2 symmetry, 3.6 A
[2] = target: the molecule itself; assay: cryo-EM structure; hABCB6[EQ] in POPC:POPE MSP2N2 nanodiscs, incubated with 5 mM ATP-Mg2+ for 30 min at 37 C, occluded conformation, C2 symmetry, 3.5 A

Row | Protein | binding result [1] | binding result [2]
1 | B1 | binds | –
2 | B2 | – | binds
